Assay results as given in US20220064329A1 (Novo Nordisk, published 2022).

Legend:
Experiment in all cases: SPR, Biacore T200, 25 C; FVII(a) variant captured on anti-Gla Ab 4F6, mAb0842(OA) injected
FVII(a) variant R113A = target: T1, FVII(a) variant R113A (human, UniProt P08709 61-466)
T1 construct: hFVII alanine variant in cell culture supernatant
T1 sequence: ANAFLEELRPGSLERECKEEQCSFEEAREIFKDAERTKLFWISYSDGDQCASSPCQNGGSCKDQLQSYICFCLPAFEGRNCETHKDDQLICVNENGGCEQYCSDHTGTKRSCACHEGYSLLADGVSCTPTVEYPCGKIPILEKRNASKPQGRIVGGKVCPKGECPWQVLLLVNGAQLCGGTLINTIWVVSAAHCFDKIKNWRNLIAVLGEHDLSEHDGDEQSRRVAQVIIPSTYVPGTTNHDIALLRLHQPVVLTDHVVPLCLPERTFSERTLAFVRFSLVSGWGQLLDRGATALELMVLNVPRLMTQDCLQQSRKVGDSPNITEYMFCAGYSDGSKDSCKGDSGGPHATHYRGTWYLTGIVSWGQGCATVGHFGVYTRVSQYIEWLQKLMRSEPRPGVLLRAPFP

FVII(a) variant I186A = target: T2, FVII(a) variant I186A (human, UniProt P08709 61-466)
T2 construct: hFVII alanine variant in cell culture supernatant
T2 sequence: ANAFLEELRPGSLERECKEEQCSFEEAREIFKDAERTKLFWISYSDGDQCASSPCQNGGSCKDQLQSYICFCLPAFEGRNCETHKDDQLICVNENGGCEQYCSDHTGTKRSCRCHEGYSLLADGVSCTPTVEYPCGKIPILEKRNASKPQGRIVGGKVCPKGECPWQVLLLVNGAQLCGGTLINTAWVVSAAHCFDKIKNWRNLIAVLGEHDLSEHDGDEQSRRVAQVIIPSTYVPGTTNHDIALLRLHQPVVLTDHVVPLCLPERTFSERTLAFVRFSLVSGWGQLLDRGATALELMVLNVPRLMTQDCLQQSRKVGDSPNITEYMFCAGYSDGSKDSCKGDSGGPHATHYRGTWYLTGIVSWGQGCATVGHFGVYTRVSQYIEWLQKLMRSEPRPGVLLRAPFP

FVII(a) variant T130A = target: T3, FVII(a) variant T130A (human, UniProt P08709 61-466)
T3 construct: hFVII alanine variant in cell culture supernatant
T3 sequence: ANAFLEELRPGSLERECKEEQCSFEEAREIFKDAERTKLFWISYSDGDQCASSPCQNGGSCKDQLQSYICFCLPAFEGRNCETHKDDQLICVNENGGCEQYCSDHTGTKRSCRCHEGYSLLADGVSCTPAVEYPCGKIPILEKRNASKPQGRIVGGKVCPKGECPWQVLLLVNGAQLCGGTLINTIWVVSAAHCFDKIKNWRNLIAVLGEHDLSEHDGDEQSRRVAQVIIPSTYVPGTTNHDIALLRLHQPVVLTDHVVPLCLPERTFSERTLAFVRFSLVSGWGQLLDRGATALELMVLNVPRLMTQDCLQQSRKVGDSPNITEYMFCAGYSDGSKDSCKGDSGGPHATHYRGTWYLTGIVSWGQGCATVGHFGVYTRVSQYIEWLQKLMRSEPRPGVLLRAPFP

FVII(a) variant E116A = target: T4, FVII(a) variant E116A (human, UniProt P08709 61-466)
T4 construct: hFVII alanine variant in cell culture supernatant
T4 sequence: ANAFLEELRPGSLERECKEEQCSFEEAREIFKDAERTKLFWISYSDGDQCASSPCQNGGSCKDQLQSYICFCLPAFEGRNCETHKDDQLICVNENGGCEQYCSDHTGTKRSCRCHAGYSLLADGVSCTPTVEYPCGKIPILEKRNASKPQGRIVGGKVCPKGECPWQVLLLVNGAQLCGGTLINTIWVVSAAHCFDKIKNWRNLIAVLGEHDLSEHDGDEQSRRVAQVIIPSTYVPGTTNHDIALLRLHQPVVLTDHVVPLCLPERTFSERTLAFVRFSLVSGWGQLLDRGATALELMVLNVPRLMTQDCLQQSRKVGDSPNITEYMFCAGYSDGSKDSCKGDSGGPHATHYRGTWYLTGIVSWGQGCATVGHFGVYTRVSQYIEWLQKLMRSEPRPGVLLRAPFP

FVII(a) variant V252A = target: T5, FVII(a) variant V252A (human, UniProt P08709 61-466)
T5 construct: hFVII alanine variant in cell culture supernatant
T5 sequence: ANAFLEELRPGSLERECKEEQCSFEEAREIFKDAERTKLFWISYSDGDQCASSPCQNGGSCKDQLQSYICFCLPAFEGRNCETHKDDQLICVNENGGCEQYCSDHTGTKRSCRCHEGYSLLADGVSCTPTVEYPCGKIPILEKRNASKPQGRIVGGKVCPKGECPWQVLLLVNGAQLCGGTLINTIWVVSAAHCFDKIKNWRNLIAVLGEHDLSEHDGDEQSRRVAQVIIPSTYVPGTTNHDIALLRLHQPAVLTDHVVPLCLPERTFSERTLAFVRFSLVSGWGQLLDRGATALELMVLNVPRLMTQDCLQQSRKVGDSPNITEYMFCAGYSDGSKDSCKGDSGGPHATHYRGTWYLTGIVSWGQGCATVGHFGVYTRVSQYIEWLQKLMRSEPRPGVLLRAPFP

Kd (FVII(a) variant R113A): 0.29 nM
Kd (FVII(a) variant I186A): 0.39 nM
Kd (FVII(a) variant T130A): 32.1 nM
Kd (FVII(a) variant E116A): 0.5 nM
Kd (FVII(a) variant V252A): 0.28 nM
B1: mAb0842(OA) (antibody, human IgG4 S228P, kappa)
heavy: QVQLQESGPGLVKPSQTLSLTCTVSGYSISSDSAWSWIRQPPGKGLEWIGYIQYSGSTNYNPSLKSRVTISRDTSKNQFSLKLSSVTAADTAVYYCARSVNYYGNSFAVGYWGQGTLVTVSSASTKGPSVFPLAPCSRSTSESTAALGCLVKDYFPEPVTVSWNSGALTSGVHTFPAVLQSSGLYSLSSVVTVPSSSLGTKTYTCNVDHKPSNTKVDKRVESKYGPPCPPCPAPEFLGGPSVFLFPPKPKDTLMISRTPEVTCVVVDVSQEDPEVQFNWYVDGVEVHNAKTKPREEQFNSTYRVVSVLTVLHQDWLNGKEYKCKVSNKGLPSSIEKTISKAKGQPREPQVYTLPPSQEEMTKNQVSLSCAVKGFYPSDIAVEWESNGQPENNYKTTPPVLDSDGSFFLVSRLTVDKSRWQEGNVFSCSVMHEALHNHYTQKSLSLSLGK
light: EIVLTQSPATLSLSPGERATLSCRASQGISDYLHWYQQKPGEAPRLLIKYTSQPATGIPARFSGSGSGTDFTLTISSLEPEDFAVYYCQNGHSFPLTFGQGTKLEIKRTVAAPSVFIFPPSDEQLKSGTASVVCLLNNFYPREAKVQWKVDNALQSGNSQESVTEQDSKDSTYSLSSTLTLSKADYEKHKVYACEVTHQGLSSPVTKSFNRGEC
chain: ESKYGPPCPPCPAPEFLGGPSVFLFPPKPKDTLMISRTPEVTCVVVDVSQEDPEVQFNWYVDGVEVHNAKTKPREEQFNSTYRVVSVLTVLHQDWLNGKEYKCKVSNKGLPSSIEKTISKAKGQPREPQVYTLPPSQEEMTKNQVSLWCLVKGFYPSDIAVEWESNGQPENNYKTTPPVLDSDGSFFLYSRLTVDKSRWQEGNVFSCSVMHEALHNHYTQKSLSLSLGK
notes: also called monovalent humanized 11F2 antibody; one-armed anti-FVII(a) antibody
